Measured values: US12578343B2, “Selective ACKR3 modulators and uses thereof” (Luxembourg Institute of Health (LIH), priority 2019, dated 2026)

Legend:
[1] = tested on: ACKR3; test: B-arrestin-1 | ACKR3 | EC50 (nM)
Description: Table printed on a drawing sheet, FIG. 1 (continued) H
Head of the field: B-arrestin-1 | ACKR3 | EC50 (nM)
The patent's description of the figure: FIG. 1 Opioid peptide library screening on ACKR3, hit confirmation and comparison with classical opioid receptors. (A) The ability of 58 compounds, including natural opioid peptides from the four opioid families, variants thereof and small molecule opioid receptor modulators, to induce β-arrestin-2 recruitment to ACKR3, CXCR4 and CXCR3 in U87 cells at a concentration of 5 μM. Positive control chemokines were used at a concentration of 300 nM. Results are expressed as fold change over vehicle-treated cells and presented as mean±S.D of two replicates (B-F) Comparison of potency and efficacy of ACKR3-activating peptides in inducing β-arrestin-1 recruitment to the opioid receptors MOR (B), DOR (C), KOR (D), NOP (E) and ACKR3 (F) in U87 cells. Results are expressed as percentage of indicated agonist response. […] Results from B—H are presented as mean±S.E.M (n ? 3).
Where the first naming reader finds the target: head: B-arrestin-1 | ACKR3 | EC50 (nM)

[2] = molecular target: T1, CXCR4 (Homo sapiens, UniProt P61073); test: HTRF ERK1/2 phosphorylation, U87 cells stably expressing CXCR4; assay type: cell-based; details: between 2 and 120 minutes after stimulation
T1 construct: expressed in transfected cells; pcDNA3.1 transient for DMR
T1 sequence (P61073 whole entry): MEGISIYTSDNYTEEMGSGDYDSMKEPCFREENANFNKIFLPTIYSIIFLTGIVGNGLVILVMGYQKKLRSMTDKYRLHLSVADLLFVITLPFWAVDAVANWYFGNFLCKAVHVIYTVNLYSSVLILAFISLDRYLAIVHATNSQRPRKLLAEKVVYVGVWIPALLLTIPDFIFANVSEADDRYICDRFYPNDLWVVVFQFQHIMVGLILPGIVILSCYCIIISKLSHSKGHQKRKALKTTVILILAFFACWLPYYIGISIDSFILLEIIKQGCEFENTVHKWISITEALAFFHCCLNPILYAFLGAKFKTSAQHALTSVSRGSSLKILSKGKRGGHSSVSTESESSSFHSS
Experimental: 1.6 Homogeneous Time-Resolved Fluorescence (HTRF)-Based Extracellular Signal Regulated Kinases 1 and 2 (ERK1/2) Phosphorylation Assays
Homogeneous Time-Resolved Fluorescence (HTRF)-based phospho-ERK1/2 and total-ERK1/2 assays were performed using phospho-ERK1/2 (Thr202/Tyr204) and total-ERK1/2 cellular kits (Cisbio International). In short, for quantification of total and phosphorylated ERK1/2 protein, U87 cells stably expressing (or not) ACKR3 or CXCR4 were seeded at a density of 3.5×10^4 cells per well into 96-well poly-D-lysine (PDL)-coated microtiter plates (Sigma-Aldrich). After overnight incubation, cells were starved for 4 hours at 37° C. in serum-free medium. Cells were then stimulated for the indicated time intervals with chemokine or opioid ligands, respectively, before termination by replacement of supernatants with lysis buffer followed by 1.5 hours incubation on an orbital shaker. […] D2-labeled anti-total-ERK1/2 and Eu^3+-Cryptate-labelled anti-total-ERK1/2 antibodies were added for quantification of total-ERK1/2 abundance. Following an incubation time of at least 2 hours (phospho-ERK1/2) or 24 hours (total-ERK1/2), time-resolved FRET signals were measured using the Mithras LB 940 multimode reader (Berthold Technologies) equipped with 320 nm excitation filter and 620 nm (donor) and 665 nm (acceptor) emission filters.

[3] = molecular target: T1, CXCR4; test: Dynamic mass redistribution (DMR), U87 cells expressing CXCR4; assay type: cell-based; details: 200 nM
Experimental: 1.5. Label-Free Dynamic Mass Redistribution (DMR) Assay
Dynamic mass redistribution (DMR) experiments were conducted using the Corning Epic (Corning) biosensor system as previously described in Schröder, R. et al. Deconvolution of complex G protein-coupled receptor signaling in live cells using dynamic mass redistribution measurements. Nat Biotechnol 28, 943-949 (2010) and Schröder, R. et al. Applying label-free dynamic mass redistribution technology to frame signaling of G protein-coupled receptors noninvasively in living cells. Nat Protoc. 6(11): 1748-1760 (2011). In brief, 6×10^5 U87 cells were seeded in 6-cm dishes. 24 hours later cells were transfected with pcDNA3.1-based expression plasmids coding for the respective chemokine (ACKR3, CXCR4) or opioid (KOR, NOP) receptors using polyethylenimine (PEI) reagent (Polysciences). 24 hours after transfection 1×10^4 cells per well were transferred to a 384-well Epic biosensor plate and incubated (37° C., 5% CO2) overnight. Cells were then washed twice with Hanks' balanced salt solution (HBSS) (Life Technologies) containing 20 mM HEPES (Life Technologies) and subsequently incubated in the DMR-reader for 1.5 hours to achieve temperature equilibration (37° C.). […] Alterations of ligand-induced DMR were monitored for at least 3000 seconds. Raw data were processed and analysed using GraphPad Prism 7.05 (GraphPad Inc).

[4] = molecular target: T2, ACKR3 (Homo sapiens, UniProt P25106); test: Opioid peptide library screening: β-arrestin-2 recruitment to ACKR3 in U87 cells; assay type: cell-based; design: expressed in transfected cells; host or cells: U87 cells, transient co-transfection of pNBe vectors; details: 5 μM
Experimental: (§1) In brief, 1.2×10^6 U87 cells were plated in 10 cm-culture dishes and 48 hours later co-transfected with pNBe vectors encoding GPCRs C-terminally tagged to SmBiT and human β-arrestin-1 or -2 or mini G proteins (mG, engineered GTPase domains of Gα subunits,) N-terminally fused to LgBiT. 48 hours post-transfection cells were harvested, incubated 25 minutes at 37° C. with Nano-Glo Live Cell substrate diluted 200-fold and distributed into white 96-well plates (5×10^4 cells per well). Ligand-induced, β-arrestin and mG recruitment to GPCRs was evaluated with a Mithras LB940 luminometer (Berthold Technologies) for 20 minutes. For concentration-response curves, the signal recorded with a saturating concentration of full agonist for each receptor was set as 100%.
Target sequence in this assay (P25106 whole entry, the tested form may be a part): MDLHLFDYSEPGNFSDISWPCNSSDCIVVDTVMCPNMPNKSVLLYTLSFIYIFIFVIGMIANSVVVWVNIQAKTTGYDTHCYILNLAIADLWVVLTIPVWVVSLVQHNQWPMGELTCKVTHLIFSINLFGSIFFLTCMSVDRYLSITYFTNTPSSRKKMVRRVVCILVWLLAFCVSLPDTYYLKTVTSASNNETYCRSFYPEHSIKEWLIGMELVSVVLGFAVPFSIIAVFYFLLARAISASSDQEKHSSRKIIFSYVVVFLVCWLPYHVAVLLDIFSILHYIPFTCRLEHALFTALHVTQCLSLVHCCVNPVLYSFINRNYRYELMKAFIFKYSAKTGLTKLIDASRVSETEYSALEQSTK
Target sequence in this assay (P32121 whole entry partner, the tested form may be a part): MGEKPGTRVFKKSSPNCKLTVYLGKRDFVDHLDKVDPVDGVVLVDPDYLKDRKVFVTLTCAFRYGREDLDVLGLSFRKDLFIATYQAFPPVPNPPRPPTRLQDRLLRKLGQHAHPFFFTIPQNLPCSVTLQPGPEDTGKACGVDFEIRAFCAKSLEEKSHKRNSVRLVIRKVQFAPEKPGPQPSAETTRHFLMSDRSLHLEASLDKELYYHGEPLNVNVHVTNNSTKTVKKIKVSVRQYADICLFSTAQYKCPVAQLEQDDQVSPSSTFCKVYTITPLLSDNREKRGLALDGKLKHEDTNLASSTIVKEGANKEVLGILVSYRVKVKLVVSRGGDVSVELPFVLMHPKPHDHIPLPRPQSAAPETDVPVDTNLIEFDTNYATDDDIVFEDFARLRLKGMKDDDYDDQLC

[5] = molecular target: T3, native or CXCR4-expressing U87 cells (Homo sapiens, UniProt P61073); test: Binding of fluorescently labelled LIH383 to native or CXCR4-expressing cells
T3 construct: expressed in transfected cells; pcDNA3.1 transient for DMR
T3 sequence (P61073 whole entry): as the sequence (P61073 whole entry) above

[6] = tested on: smNPCs; test: Uptake of labelled dynorphin A (1-13) by smNPCs, imaging flow cytometry; assay type: cell-based, human
Experimental: U87 cells derived from human brain glioblastoma were obtained through the NIH AIDS Reagent Program from Dr. Deng and Dr. Littman. U87 stably expressing ACKR3 and CXCR4 were generated as previously described in Szpakowska, M. et al. Different contributions of chemokine N-terminal features attest to a different ligand binding mode and a bias towards activation of ACKR3/CXCR7 compared with CXCR4 and CXCR3. Br J Pharmacol 175, 1419-1438 (2018). U87 cells were grown in Dulbecco's modified Eagle medium (DMEM) supplemented with 15% foetal bovine serum and penicillin/streptomycin (100 Units/ml and 100 μg/ml). U87-ACKR3 and U87-CXCR4 were maintained under puromycin (1 μg/ml) selective pressure. smNPCs (small molecule neural precursor cells) derived from a healthy donor (C1-1) whose informed consent was obtained, were grown on Geltrex™-coated surface in N2B27 medium supplemented with 0.5 μM Purmorphamine, 3 μM CHIR 99021 and 150 μM ascorbic acid. N2B27 medium consisted of DMEM/F12 and NeuroBasal medium 50:50 with 0.5% N2 supplement, 1% B27 supplement lacking vitamin A, 1% GlutaMAX and 1% penicilin/streptomycin. Medium was renewed every other day.
Cells were distributed into 96-well plates (2×10^5 cells/well in Opti-MEM for U87 and U87-ACKR3 and 3×10^5 cells/well in N2B27 medium for smNPCs). […] For comparison of labelled opioid peptide-uptake by ACKR3 or classical opioid receptors, 1.2×10^6 U87 cells were seeded in 10-cm dishes and transfected 48 hours later with 4 μg pcDNA3.1 plasmid encoding ACKR3 or KOR, MOR or NOP. 48 hours post transfection, cells were harvested and treated as described above. Dead cells were excluded using Zombie NIR or Zombie Green viability dye (BioLegend) for FAM-labelled peptides and Cy5-labelled peptides, respectively. Images of 1×10^4 in-focus, living single cells were acquired with an ImageStream MKII imaging flow cytometer (Amnis) using 40× magnification (60× magnification for smNPCs). Samples were analysed using Ideas6.2 software. The number of spots per cell was determined using a mask-based software wizard.

[7] = molecular target: T2, ACKR3; test: Uptake of fluorescently labelled opioid peptides by ACKR3-expressing U87 cells, imaging flow cytometry; assay type: cell-based; design: expressed in transfected cells; for the receptor comparison in the uptake assay, transient pcDNA3.1); details: 40 minutes at 37° C.
Target sequence in this assay (P25106 whole entry, the tested form may be a part): as the sequence (P25106 whole entry, the tested form may be a part) above
Description: Visualization of Fluorescently Labelled Opioid Peptides Uptake by Imagestream

[8] = molecular target: T2, ACKR3; test: ACKR3-mediated depletion of extracellular dynorphin A monitored by its ability to activate KOR (U87-ACKR3 cells); assay type: cell-based; design: expressed in transfected cells; for the receptor comparison in the uptake assay, transient pcDNA3.1); details: pre-treatment of ACKR3-expressing cells, saturating concentration
Experimental: as §1
Target sequence in this assay (P25106 whole entry, the tested form may be a part): as above

[9] = molecular target: T2, ACKR3; assay type: cell-based; design: expressed in transfected cells; host or cells: U87 cells, transient co-transfection of pNBe vectors; details: U87 cells
Target sequence in this assay (P25106 whole entry, the tested form may be a part): as above
Target sequence in this assay (P49407 whole entry partner, the tested form may be a part): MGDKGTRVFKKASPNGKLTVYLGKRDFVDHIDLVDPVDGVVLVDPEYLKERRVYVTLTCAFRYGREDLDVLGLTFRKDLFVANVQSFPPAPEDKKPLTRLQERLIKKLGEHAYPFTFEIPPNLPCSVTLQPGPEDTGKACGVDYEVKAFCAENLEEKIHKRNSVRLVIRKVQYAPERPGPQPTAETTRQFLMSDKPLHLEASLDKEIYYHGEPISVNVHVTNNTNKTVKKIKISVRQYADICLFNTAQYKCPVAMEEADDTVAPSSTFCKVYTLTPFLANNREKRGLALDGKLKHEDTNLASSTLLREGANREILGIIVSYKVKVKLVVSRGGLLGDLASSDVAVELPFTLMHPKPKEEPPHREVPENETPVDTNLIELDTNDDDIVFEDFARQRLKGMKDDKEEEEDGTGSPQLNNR

[10] = molecular target: KOR (Homo sapiens, UniProt P41145); test: β-arrestin-1 recruitment to KOR (NanoBiT, U87 cells); assay type: cell-based; design: expressed in transfected cells; host or cells: U87 cells, transient co-transfection of pNBe vectors
Sequence of KOR (P41145 whole entry): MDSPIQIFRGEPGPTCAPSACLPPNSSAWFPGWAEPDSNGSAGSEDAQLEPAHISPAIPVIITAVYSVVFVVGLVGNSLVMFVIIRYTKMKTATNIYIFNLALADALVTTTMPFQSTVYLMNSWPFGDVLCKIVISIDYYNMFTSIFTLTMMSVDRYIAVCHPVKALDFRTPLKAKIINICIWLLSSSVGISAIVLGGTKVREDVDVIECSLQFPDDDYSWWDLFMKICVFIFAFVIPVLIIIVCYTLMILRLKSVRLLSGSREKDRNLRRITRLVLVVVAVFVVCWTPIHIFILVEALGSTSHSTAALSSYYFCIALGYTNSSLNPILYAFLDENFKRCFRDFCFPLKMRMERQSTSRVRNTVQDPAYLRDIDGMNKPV
Experimental: as §1

[11] = molecular target: T4, MOR (Homo sapiens, UniProt P35372); assay type: cell-based
T4 construct: expressed in transfected cells; host or cells: U87 cells, transient co-transfection of pNBe vectors
T4 sequence (P35372 whole entry): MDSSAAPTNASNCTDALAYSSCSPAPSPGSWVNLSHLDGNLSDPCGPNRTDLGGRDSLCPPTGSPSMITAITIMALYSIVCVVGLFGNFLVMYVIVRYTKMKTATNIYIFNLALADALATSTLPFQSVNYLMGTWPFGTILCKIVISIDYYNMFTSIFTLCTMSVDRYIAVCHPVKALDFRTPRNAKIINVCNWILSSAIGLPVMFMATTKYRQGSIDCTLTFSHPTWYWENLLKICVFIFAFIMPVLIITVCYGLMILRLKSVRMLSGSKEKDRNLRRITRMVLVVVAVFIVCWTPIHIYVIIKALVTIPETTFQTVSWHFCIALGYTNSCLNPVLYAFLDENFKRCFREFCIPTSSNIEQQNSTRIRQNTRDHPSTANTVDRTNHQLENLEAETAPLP
Experimental: as §1

[12] = molecular target: T5, DOR (Homo sapiens, UniProt P41143); test: β-arrestin-1 recruitment to DOR (NanoBiT, U87 cells); assay type: cell-based
T5 construct: expressed in transfected cells; host or cells: U87 cells, transient co-transfection of pNBe vectors
T5 sequence (P41143 whole entry): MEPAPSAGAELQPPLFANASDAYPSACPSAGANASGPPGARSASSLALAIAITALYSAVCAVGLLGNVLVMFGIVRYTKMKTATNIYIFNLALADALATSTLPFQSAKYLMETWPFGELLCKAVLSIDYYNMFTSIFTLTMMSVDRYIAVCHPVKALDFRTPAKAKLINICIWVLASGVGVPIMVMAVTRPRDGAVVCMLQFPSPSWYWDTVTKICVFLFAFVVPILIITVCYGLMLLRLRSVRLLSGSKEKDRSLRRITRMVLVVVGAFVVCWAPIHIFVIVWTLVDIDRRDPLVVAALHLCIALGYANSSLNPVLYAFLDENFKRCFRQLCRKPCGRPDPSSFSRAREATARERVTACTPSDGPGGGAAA
Experimental: as §1

[13] = tested on: CXCR3; test: β-arrestin recruitment to CXCR3 (NanoBiT); assay type: cell-based, human; details: saturating concentration (3 μM)
Sequence of CXCR3 (P49682 5-368 limits assumed): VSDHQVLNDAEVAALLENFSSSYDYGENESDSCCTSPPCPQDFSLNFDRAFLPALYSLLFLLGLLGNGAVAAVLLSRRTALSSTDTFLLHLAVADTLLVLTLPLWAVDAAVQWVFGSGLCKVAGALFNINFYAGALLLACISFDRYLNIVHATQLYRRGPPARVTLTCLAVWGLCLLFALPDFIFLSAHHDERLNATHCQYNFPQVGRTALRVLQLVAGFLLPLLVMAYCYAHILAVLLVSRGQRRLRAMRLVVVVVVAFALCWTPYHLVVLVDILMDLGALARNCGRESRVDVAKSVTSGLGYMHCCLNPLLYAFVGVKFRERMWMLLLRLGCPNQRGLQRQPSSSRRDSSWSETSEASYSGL
Experimental: as §1

[14] = molecular target: T6, CX3CR1 (Homo sapiens, UniProt P49238); test: β-arrestin recruitment to CX3CR1 (NanoBiT); assay type: cell-based; details: saturating concentration (3 μM)
T6 construct: expressed in transfected cells; host or cells: U87 cells, transient co-transfection of pNBe vectors
T6 sequence (P49238 1-355): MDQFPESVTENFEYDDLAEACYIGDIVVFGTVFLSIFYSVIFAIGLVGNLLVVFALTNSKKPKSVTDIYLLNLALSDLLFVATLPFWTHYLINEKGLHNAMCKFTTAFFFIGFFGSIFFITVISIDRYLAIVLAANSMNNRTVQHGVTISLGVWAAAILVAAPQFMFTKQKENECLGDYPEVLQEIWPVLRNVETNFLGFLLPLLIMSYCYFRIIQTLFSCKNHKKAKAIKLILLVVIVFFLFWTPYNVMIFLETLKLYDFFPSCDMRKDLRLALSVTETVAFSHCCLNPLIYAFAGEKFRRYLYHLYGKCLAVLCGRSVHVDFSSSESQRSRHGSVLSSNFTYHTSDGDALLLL
Experimental: as §1

[15] = molecular target: T7, CCR3 (Homo sapiens, UniProt P51677); test: β-arrestin recruitment to CCR3 (NanoBiT); assay type: cell-based; details: saturating concentration (3 μM)
T7 construct: expressed in transfected cells; host or cells: U87 cells, transient co-transfection of pNBe vectors
T7 sequence (P51677 1-355): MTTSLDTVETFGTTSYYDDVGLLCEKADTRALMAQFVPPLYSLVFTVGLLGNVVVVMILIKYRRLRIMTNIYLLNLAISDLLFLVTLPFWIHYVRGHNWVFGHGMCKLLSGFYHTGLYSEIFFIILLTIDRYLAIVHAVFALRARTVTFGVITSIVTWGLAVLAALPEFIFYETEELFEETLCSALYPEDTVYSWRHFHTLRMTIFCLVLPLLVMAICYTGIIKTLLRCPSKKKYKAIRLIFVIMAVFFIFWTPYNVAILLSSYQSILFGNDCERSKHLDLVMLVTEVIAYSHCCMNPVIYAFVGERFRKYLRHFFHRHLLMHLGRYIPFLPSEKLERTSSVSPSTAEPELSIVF
Experimental: as §1

## BAM22: proenkephalin-derived opioid peptide
[1]
  EC50: 23.5 nM

## CXCL12: C—X—C motif chemokine 12, endogenous ACKR3 chemokine ligand
[2]
  ERK phosphorylation, cells stably expressing CXCR4: strong increase in ERK phosphorylation
[3]
  DMR response of CXCR4-expressing U87 cells: strong DMR

## BAM18: opioid peptide previously reported as ACKR3 ligand (YGGFMRRVGRPEWWMDYQ)
[4]
  ability to induce β-arrestin-2 recruitment to ACKR3 (library screening): capable of inducing β-arrestin-2 recruitment to ACKR3

## Cy-5-labelled LIH383: fluorescently labelled LIH383 (LIH383-Cy5)
[5]
  binding to native or CXCR4-expressing U87 cells: not to native or CXCR4-expressing U87 cells

## dynorphin A 1-13: endogenous opioid peptide, fragment of dynorphin A (YGGFLRRIRPKLK) [reference compound]
[6]; 250 nM, 40 minutes at 37° C.
  accumulation of the labelled peptide by smNPCs: able to accumulate
[7]
  uptake of the fluorescently labelled peptide by ACKR3-expressing cells (also versus classical opioid receptor): more efficient compared to that of KOR

## MRRKFGGF [LIH383 ctrl, control peptide consisting of the 8 amino acids building LIH383 in a different arrangement, reference compound]
[6]; 3 μM, 15 minutes pre-treatment
  effect of pretreatment on uptake of labelled dynorphin A (1-13) by smNPCs: not
[8]
  reversal of the ACKR3-mediated impairment of dynorphin A potency to activate KOR by pre-treatment: not

## FGGFMRRV [adrenorphin Y1F variant]
[9]; β-arrestin-1 recruitment
  impact of adrenorphin modification on activity towards ACKR3 (versus adrenorphin), in words: tenfold improvement in potency
[10]
  reduction of potency towards KOR as compared to WT adrenorphin: over 100 fold
[11]
  reduction of potency towards MOR as compared to WT adrenorphin: over 100 fold
[12]
  reduction of potency towards DOR as compared to WT adrenorphin: over 100 fold

## big dynorphin: the precursor of dynorphin A and B
[9]
  β-arrestin recruitment to ACKR3: agonist activity/potency in words: at low concentrations comparable to their activity on the classical opioid receptors
[13]
  β-arrestin recruitment to CXCR3: faint induction of β-arrestin recruitment
[14]
  β-arrestin recruitment to CX3CR1: faint induction of β-arrestin recruitment
[15]
  β-arrestin recruitment to CCR3: faint induction of β-arrestin recruitment
